Measurements taken from patent US20020110853A1.

Target: FLAG-TWEAKR, expressed on transfected HUVEC (human) (UniProt Q9NP84)
Assay: cell-based or functional assay

Chain of FLAG-TWEAKR, expressed on transfected HUVEC (human) (Q9NP84 28-129): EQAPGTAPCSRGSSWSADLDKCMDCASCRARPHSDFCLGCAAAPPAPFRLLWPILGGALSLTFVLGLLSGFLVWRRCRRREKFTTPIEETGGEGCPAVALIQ

M2 anti-FLAG monoclonal antibody
BrdU incorporation of FLAG-TWEAKR expressing HUVEC, against goat anti-mouse IgG alone: 3 fold | BrdU incorporation of FLAG-TWEAKR expressing HUVEC, against vector-only transfected HUVEC with the cross-linking complex: 6 fold
